Data published in patent publication US11833164B2, “Methods of treating Fabry disease in patients having a mutation in the GLA gene” (Amicus Therapeutics, Inc., priority 2019, dated 2023).
Substitutions are numbered along the chain they refer to. In names and notes the source's numbering stands.

B1: G144C (protein)
chain: MQLRNPELHLGCALALRFLALVSWDIPGARALDNGLARTPTMGWLHWERFMCNLDCQEEPDSCISEKLFMEMAELMVSEGWKDAGYEYLCIDDCWMAPQRDSEGRLQADPQRFPHGIRQLANYVHSKGLKLGIYADVGNKTCACFPGSFGYYDIDAQTFADWGVDLLKFDGCYCDSLENLADGYKHMSLALNRTGRSIVYSCEWPLYMWPFQKPNYTEIRQYCNHWRNFADIDDSWKSIKSILDWTSFNQERIVDVAGPGGWNDPDMLVIGNFGLSWNQQVTQMALWAIMAAPLFMSNDLRHISPQAKALLQDKDVIAINQDPLGKQGYQLRQGDNFEVWERPLSGLAWAVAMINRQEIGGPRSYTIAVASLGKGVACNPACFITQLLPVKRKLGFYEWTSRLRSHINPTGTVLLQLENTMQMSLKDLL
B2: P146A (protein)
chain: B1 chain with C144G, P146A
B3: F145V (protein)
chain: B1 chain with C144G, F145V
B4: P146L (protein)
chain: B1 chain with C144G, P146L
B5: S148T (protein)
chain: B1 chain with C144G, S148T
B6: F145Y (protein)
chain: B1 chain with C144G, F145Y
B7: G144S (protein)
chain: B1 chain with C144S
B8: F149C (protein)
chain: B1 chain with C144G, F149C
B9: F145L (protein)
chain: B1 chain with C144G, F145L
B10: S148G (protein)
chain: B1 chain with C144G, S148G
B11: P146T (protein)
chain: B1 chain with C144G, P146T
B12: G144R (protein)
chain: B1 chain with C144R
B13: G147A (protein)
chain: B1 chain with C144G, G147A
B14: S148C (protein)
chain: B1 chain with C144G, S148C
B15: F145C (protein)
chain: B1 chain with C144G, F145C
B16: P146H (protein)
chain: B1 chain with C144G, P146H

System: mutant form of α-Gal A expressed in HEK-293 cells
Assay: HEK assay (GLP HEK / Migalastat Amenability Assay): α-Gal A activity in lysates of transiently transfected HEK-293 cells incubated with or without 10 μM migalastat
Type: cell-based, human
Conditions: for Absolute increase (% WT): 10 μM migalastat versus baseline; for Relative increase: 10 μM migalastat α-Gal A activity relative to baseline; for 10 μM migalastat α-Gal A activity (% WT): 5 days; for 10 μM migalastat α-Gal A activity (% WT) / Baseline α-Gal A activity (% WT): percentage of baseline wild-type α-Gal A activity; for 10 μM migalastat α-Gal A activity (% WT) / Baseline α-Gal A activity (% WT) / Baseline α-Gal A activity / 10 μM migalastat α-Gal A activity: mean ± SEM; for Baseline α-Gal A activity (% WT) / Baseline α-Gal A activity (nmol/mg/hr): absence of migalastat; for Baseline α-Gal A activity / 10 μM migalastat α-Gal A activity: lysates of HEK-293 cells transfected with the mutant form; for Baseline α-Gal A activity: incubated 5 days in the absence of migalastat; for 10 μM migalastat α-Gal A activity: incubated 5 days with 10 μM migalastat; for Baseline α-Gal A activity (nmol/mg/hr): mean activity below the limit of detection (<142 nmol/mg/hr)
Outline: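 Activity reported as 4-MU released (nmol/mg/hr), mean±SEM, from lysates of transiently transfected HEK-293 cells expressing mutant α-Gal A, cultured with or without 10 μM migalastat.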

| Molecule | Absolute increase (% WT) | Relative increase | 10 μM migalastat α-Gal A activity (% WT) | Baseline α-Gal A activity (% WT) | Baseline α-Gal A activity | 10 μM migalastat α-Gal A activity | Baseline α-Gal A activity (nmol/mg/hr) |
| --- | --- | --- | --- | --- | --- | --- | --- |
| B1 | 7.1 % WT | 3.9 | 9.5 ± 0.8 % WT | 2.5 ± 0.2 % WT | 759 ± 69 nmol/mg/h | 2988 ± 262 nmol/mg/h |  |
| B2 | 25.4 % WT | 1.6 | 64.1 ± 4.4 % WT | 38.7 ± 2.5 % WT | 15393 ± 1271 nmol/mg/h | 25029 ± 1628 nmol/mg/h |  |
| B3 | 5.7 % WT |  | 5.7 ± 0.6 % WT |  |  | 2359 ± 333 nmol/mg/h | BLD (“BLD” indicates that the mean α-Gal A activity was below the limit of detection (<142 nmol/mg/hr)) |
| B4 | 12.4 % WT | 1.5 | 37.1 ± 2.2 % WT | 24.7 ± 1.8 % WT | 9940 ± 899 nmol/mg/h | 14540 ± 903 nmol/mg/h |  |
| B5 | 15.9 % WT | 1.2 | 82.4 ± 3.7 % WT | 66.5 ± 3.8 % WT | 24827 ± 1221 nmol/mg/h | 30620 ± 813 nmol/mg/h |  |
| B6 | 23.5 % WT | 1.2 | 131.7 ± 5.1 % WT | 108.1 ± 6.2 % WT | 41985 ± 2942 nmol/mg/h | 51524 ± 2970 nmol/mg/h |  |
| B7 | 30.4 % WT | 1.6 | 78 ± 5.6 % WT | 47.6 ± 2.4 % WT | 14190 ± 967 nmol/mg/h | 23153 ± 1847 nmol/mg/h |  |
| B8 | 13.9 % WT | 1.3 | 60.9 ± 6.4 % WT | 47 ± 4.4 % WT | 15198 ± 1188 nmol/mg/h | 19032 ± 1272 nmol/mg/h |  |
| B9 | 61.8 % WT | 5.5 | 75.7 ± 2.9 % WT | 13.9 ± 0.8 % WT | 5455 ± 412 nmol/mg/h | 29794 ± 1799 nmol/mg/h |  |
| B10 | 11.8 % WT | 11.2 | 12.9 ± 1 % WT | 1.1 ± 0.1 % WT | 435 ± 55 nmol/mg/h | 4879 ± 263 nmol/mg/h |  |
| B11 | 25.0 % WT | 1.8 | 58.6 ± 2.4 % WT | 33.6 ± 1.5 % WT | 13711 ± 1154 nmol/mg/h | 24123 ± 2081 nmol/mg/h |  |
| B12 | 37.7 % WT | 2.0 | 73.4 ± 6.5 % WT | 35.7 ± 2.8 % WT | 10574 ± 838 nmol/mg/h | 21406 ± 1764 nmol/mg/h |  |
| B13 | 3.0 % WT |  | 3 ± 0.2 % WT |  |  | 1159 ± 74 nmol/mg/h | BLD (“BLD” indicates that the mean α-Gal A activity was below the limit of detection (<142 nmol/mg/hr)) |
| B14 | 19.3 % WT | 1.6 | 49.5 ± 2 % WT | 30.2 ± 2.2 % WT | 11927 ± 1020 nmol/mg/h | 19343 ± 919 nmol/mg/h |  |
| B15 | 25.7 % WT | 14.4 | 27.8 ± 0.8 % WT | 2.1 ± 0.2 % WT | 768 ± 54 nmol/mg/h | 11083 ± 678 nmol/mg/h |  |
| B16 | 21.8 % WT | 3.7 | 30.2 ± 2.1 % WT | 8.5 ± 0.7 % WT | 3220 ± 211 nmol/mg/h | 11903 ± 844 nmol/mg/h |  |
